Data reported in PMC10945584, “Dual recognition of multiple signals in bacterial outer membrane proteins enhances assembly and maintains membrane integrity” (eLife, 2024).
Substitutions are numbered along the chain they refer to. In names and notes the source's numbering stands. Several values for one entry are separate records, joined by “and”; a condition that tells them apart may be missing. Identical values can stand only once.

B1: 35S-labeled OmpC(Y286A), in vitro translated (natural protein, Escherichia coli, UniProt P06996 1-367, looked up)
chain: MKVKVLSLLVPALLVAGAANAAEVYNKDGNKLDLYGKVDGLHYFSDNKDVDGDQTYMRLGFKGETQVTDQLTGYGQWEYQIQGNSAENENNSWTRVAFAGLKFQDVGSFDYGRNYGVVYDVTSWTDVLPEFGGDTYGSDNFMQQRGNGFATYRNTDFFGLVDGLNFAVQYQGKNGNPSGEGFTSGVTNNGRDALRQNGDGVGGSITYDYEGFGIGGAISSSKRTDAQNTAAYIGNGDRAETYTGGLKYDANNIYLAAQYTQTYNATRVGSLGWANKAQNFEAVAQAQFDFGLRPSLAYLQSKGKNLGRGYDDEDILKYVDVGATYYFNKNMSTYVDYKINLLDDNQFTRDAGINTDNIVALGLVYQF
modifications: 35S-methionine label
notes: OmpC, E. coli; also called internal signal mutant; source: in vitro translated (rabbit reticulocyte lysate, 35S-methionine)
B2: 35S-labeled OmpC, in vitro translated (natural protein, Escherichia coli, UniProt P06996 1-367, looked up)
chain: B1 chain with A286Y
modifications: 35S-methionine label
notes: OmpC, E. coli; also called 35S-OmpC; OmpC(WT); source: in vitro translated (rabbit reticulocyte lysate, 35S-methionine)
B3: 35S-labeled LamB, in vitro translated (natural protein, Escherichia coli, UniProt P02943 1-446, looked up)
chain: MMITLRKLPLAVAVAAGVMSAQAMAVDFHGYARSGIGWTGSGGEQQCFQTTGAQSKYRLGNECETYAELKLGQEVWKEGDKSFYFDTNVAYSVAQQNDWEATDPAFREANVQGKNLIEWLPGSTIWAGKRFYQRHDVHMIDFYYWDISGPGAGLENIDVGFGKLSLAATRSSEAGGSSSFASNNIYDYTNETANDVFDVRLAQMEINPGGTLELGVDYGRANLRDNYRLVDGASKDGWLFTAEHTQSVLKGFNKFVVQYATDSMTSQGKGLSQGSGVAFDNEKFAYNINNNGHMLRILDHGAISMGDNWDMMYVGMYQDINWDNDNGTKWWTVGIRPMYKWTPIMSTVMEIGYDNVESQRTGDKNNQYKITLAQQWQAGDSIWSRPAIRVFATYAKWDEKWGYDYTGNADNNANFGKAVPADFNGGSFGRGDSDEWTFGAQMEIWW
modifications: 35S-methionine label
notes: LamB (maltoporin), E. coli; also called maltoporin; source: in vitro translated (rabbit reticulocyte lysate, 35S-methionine)
B4: FLAG-OmpC expressed in E. coli (natural protein, Escherichia coli, UniProt P06996 22-367, looked up)
chain: AEVYNKDGNKLDLYGKVDGLHYFSDNKDVDGDQTYMRLGFKGETQVTDQLTGYGQWEYQIQGNSAENENNSWTRVAFAGLKFQDVGSFDYGRNYGVVYDVTSWTDVLPEFGGDTYGSDNFMQQRGNGFATYRNTDFFGLVDGLNFAVQYQGKNGNPSGEGFTSGVTNNGRDALRQNGDGVGGSITYDYEGFGIGGAISSSKRTDAQNTAAYIGNGDRAETYTGGLKYDANNIYLAAQYTQTYNATRVGSLGWANKAQNFEAVAQYQFDFGLRPSLAYLQSKGKNLGRGYDDEDILKYVDVGATYYFNKNMSTYVDYKINLLDDNQFTRDAGINTDNIVALGLVYQF
notes: OmpC, E. coli; Two plasmid names are printed for FLAG-OmpC; also called FLAG-OmpC(WT); FLAG-tagged form of OmpC; not shown: FLAG, N-terminal, kept
B5: OmpC, His6-tagged, purified, urea-denatured (natural protein, Escherichia coli, UniProt P06996 22-367, looked up)
chain: B4 chain
notes: OmpC, E. coli; also called OmpC(WT); native OmpC protein; source: E. coli BL21(DE3)*, inclusion bodies, purified in 6 M urea (Ni-NTA)
B6: 35S-labeled OmpF, in vitro translated (natural protein, Escherichia coli, UniProt P02931 1-362, looked up)
chain: MMKRNILAVIVPALLVAGTANAAEIYNKDGNKVDLYGKAVGLHYFSKGNGENSYGGNGDMTYARLGFKGETQINSDLTGYGQWEYNFQGNNSEGADAQTGNKTRLAFAGLKYADVGSFDYGRNYGVVYDALGYTDMLPEFGGDTAYSDDFFVGRVGGVATYRNSNFFGLVDGLNFAVQYLGKNERDTARRSNGDGVGGSISYEYEGFGIVGAYGAADRTNLQEAQPLGNGKKAEQWATGLKYDANNIYLAANYGETRNATPITNKFTNTSGFANKTQDVLLVAQYQFDFGLRPSIAYTKSKAKDVEGIGDVDLVNYFEVGATYYFNKNMSTYVDYIINQIDSDNKLGVGSDDTVAVGIVYQF
modifications: 35S-methionine label
notes: OmpF, E. coli; source: in vitro translated (rabbit reticulocyte lysate, 35S-methionine)
B7: OmpF, endogenous (natural protein, Escherichia coli (endogenous), UniProt P02931 23-362, looked up)
chain: AEIYNKDGNKVDLYGKAVGLHYFSKGNGENSYGGNGDMTYARLGFKGETQINSDLTGYGQWEYNFQGNNSEGADAQTGNKTRLAFAGLKYADVGSFDYGRNYGVVYDALGYTDMLPEFGGDTAYSDDFFVGRVGGVATYRNSNFFGLVDGLNFAVQYLGKNERDTARRSNGDGVGGSISYEYEGFGIVGAYGAADRTNLQEAQPLGNGKKAEQWATGLKYDANNIYLAANYGETRNATPITNKFTNTSGFANKTQDVLLVAQYQFDFGLRPSIAYTKSKAKDVEGIGDVDLVNYFEVGATYYFNKNMSTYVDYIINQIDSDNKLGVGSDDTVAVGIVYQF
notes: OmpF, E. coli; also called endogenous OmpF; trimeric OmpF; source: endogenous, E. coli membrane fractions (EMM)

Columns and labels:
[1] = target: the molecule itself; test: native gel or EMSA; 35S-labeled substrate incubated with E. coli microsomal membranes (EMM) at 30 °C, membranes solubilised in 1.5% DDM, BN-PAGE and radio-imaging
[2] = target: the molecule itself; test: native gel or EMSA; EMM from E. coli strains solubilised with 1.5% DDM, BN-PAGE and immunoblotting
[3] = target: the molecule itself; test: SDS-PAGE of unboiled samples after folding into detergent micelles; 5 μM urea-denatured OmpC in 10 mM phosphate pH 8.0, 2 mM EDTA, 1 mM glycine, 3.4 mM DDM, 37 °C up to 36 h; samples boiled or kept at room temperature

Row | Protein | stoichiometry N [1] | other results
1 | B1 | 3 | –
2 | B2 | 3 | –
3 | B3 | 3 | –
4 | B4 | – | stoichiometry N [2]: 2 and 3
5 | B5 | – | stoichiometry N [3]: 3 and 2
6 | B6 | 3 | –
7 | B7 | – | stoichiometry N [2]: 3 and 2
